Consider 47 sequences from the NTF2 design screens of Basanta et al. (2020).

A short description of this series: protease stability score; higher = more stable; yeast display proteolysis, trypsin and chymotrypsin.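 Further: relative to predicted unfolded state with 0 unfolded-like and 1 meaning tenfold more protease.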
Sequence “SEKEEVLREHARRVTEWWLTGDWEEFMKNMDPNARLQIGDKTSHGREEMYRVLKEIEHRLGVDHIEIKDEKVFNGRNHLDTRLHIGDKSINIRIHIDFVNGRLKFVRIEVD” showed a protease stability score of 1.18.
As to “SEKEHIMRRASQLIRDYLITGDWRSLEKLIDPNAQFEVNGRHIHGREEVSRIYLQHLNELGVERIDYIERDSDMQGEKVHTYGDLHVNGVTFHVIIFVLKIDGRWTIKKEIWSDK”, the protease stability score came to 1.15.
The sequence “SEKEKDSRIAIELSLKLVLTGNPEMNRELVDPHARVEVGEKEYHGRDWVRYQLELLGIDHFEIHHVDMYGEYVDVTLELRVGDKSFRLILHLEKIDGRWIVRKVHVD” displayed a protease stability score of 2.14.
Next, “SEKEKILEHFSELWYRLFRTGDEDTLHRMFDPDYRLIYGDKESHGRRLVWIMIAELRIHDWRLRRYHVQGDKAHFDVEVTGEFNGRREHNREEIIITVIDGRATEVEIRID”: 0.54; “SEKEKLMHDIIEKYMRNLETGNEEEYAKLADPNTRLHYGNKHRVGWKEIVHTLRHWRIHIRDSEIDSIHNIDGQAFVKGKRKGEINVDGVNIDTTFDVDIIINVFDGRLKEIEIRIH”: 0.068; “SEKEKLSKDLTRLLLEIIMTGDWKALSDNMDPEARQDIGDKHIVGREIISQFKMELDEEAGFKHSEIQRIRIIGDKIEMDVHVDQGDKHHTVHIIVIIVNGRIKHVEVRIR”: 2.
For “SEKEKLYKDMFRLWAENHRTGNEKKLLEMADPNAQFIFNGREFHGRELIKEEIDEWINRIKNVRVDIHRVEIQGEKIHVITRLHINGQDLETKVELIIVDGQLHLERIHID”, the protease stability score amounted to 0.759.
The sequence “SEKERLVLEIYWKIIHSRNTGDEDHWEELADPDMKLTINGVEFHGREATSKFFKEHVKRFGWEFHIHVDRINAFDGRVESHVIIHIQVGDKHIEIEMREEYVVINGVLKEIRILDR” came in with a protease stability score of 2.1.
“SEKERMIREMLEETMRSLKTGDEDSIHRLFDPHTRSEIDGKEYHGREEVSKWVRHARIHDFQLEDVRIQGNKAILIGVMHGRVDGRKFTTEVRIFSVKVDGQWVNENLELH” showed a protease stability score of 0.993.
With “SEKETLDQHIARLWVHYWLTGDEDQLHRLADPNVRSIVDGKHVHGMERMLTELKRMRERFDHMHIEIHDIKVFDGVIHIDTTLHVQINGVHRSWESRIIIYLINGRVHSVEIRIL”, the protease stability score was 1.16.
As for “SEKHEDAHRFYEQYLEALRTGDEDLLTELIDPHVKVEIGDKHYHGRDWMIEILRKRKERFPGLKIIIILRRMHIIGDKVFMDVEVRVHQGEKTETHRFEMIVNKINGRWLVDSIHIE”, the protease stability score was 2.08.
As for “SEKHEEVKRALELEVQLLRTGDEDIYANLADPNTRLLFDGVDIIGMEKVMEWLRFIHEHIRIRDLKIRRVRLIDGQVDVDSQIEGHVGDKHINIKHEIVVEKINGRWYIRSRHWH”, the figure is 1.52; as for “SEKHEHAHRIMEIILRAWETGDEESLRELLDPNVRFIQGDKDVVGREEMSRVLHEFREHIRLKSIHIHDKHAINGVFHLDIRIWGNVNGRDDHIEVNYTVVIVDGKIRDLEVRIH”, 1.06; as for “SEKQKLAEHFAKEFIHSLETGNEEFLEHLADPDTRLEVGDKEIHGMHHLSRWLHEHLHRYKNVRWSIEITSIEVQGDKIIIHGTLHLNIDGVEIRELIVIEIDVVNGRVKSEHRDKL”, 1.38.
“SEKRQEERKMLELIEHYWQTGDFELLRELADPDTKVRIGDKERHGWEAYIEILRTLGADHMSIRDQKTVGDYVILHIDIRIGDKRYETTLVSEKFDGRWILRRSEFR” gave a protease stability score of 1.16.
“SEKTHEFQKLYHEWIRVEWTGDFHMLSHMADPNTRVELIINGRTVERIGREDMIELVRRLKHEIRFHDFDIKRVRIQGEKIYADTHEDGEINGQRRETDAKLELDVYNGKIESVFWYIE”: the protease stability score is 1.13.
“SELDDHMRRIMDHYIEDLVTGNEDRQQKLADPNVRVIIWQGDKIYHLHGREEWVKALRELRWHEIHVRHREPVNGKTHVDTEVDGEINGRRHRHRVHLTLLVVDGKVKLVEFDHH” registered a protease stability score of 1.37.
Take “SELDEDFRHMVELFAFHMLTGDEHEVHRLADPHYRYEQGDKNIIGRDEWIRFLREIRIHVNSIHIRRLDYVGDKIEADVHFDVLIHVNGVRIRHRHDSHLFWEKVDGRWVLHSVRVL”: the protease stability score worked out at 1.36.
The sequence “SELDEDSEEAVREDIETIKTGNEEMFKRLVDPNARTDFNGKELVGREAVLHFWTMILKTMGVDHVHIEEVRIFNGRLIMHHTIHVGDKFIEVILFSEKFNGKWQIKEIEIR” showed a protease stability score of 0.053.
Sequence “SELDEEAEEALRITFEMLITGDWEFLNHYVDPDAKLNIGDKEHHGRETVITFVKEISRKLGIKVIRFRHIEVQVFNGKVDIHIHGVVEWNGRREEFRIIIILHKIDGQWHIREMRVHIR” returned a protease stability score of 2.4.
“SELDELANFANELFWELHKTGDEEIFNHYADPHMRYEIDGRDIHGMEVFTKHLRRIKNLTLHSIHVHDEKSQGEKFIFDGNVVGRVNGKEFDTRVRLELTVINGRVHSIILRRH” gave a protease stability score of 1.41.
With “SELDENVKRITDIFIHAILTGDEHKIRKLLDPHVRTVVDGVEYIGREWFAEWVKHMRIDDHRIKTIEIRNQGDYAHVHIHGRTLGEYDGKHSTVNMFIHMHFVKFDGKWFVHELNVHII”, the protease stability score is 2.06.
For “SELDEYMHRMMKWILEEEITGDEERFLHLADPHVRSRIDVGEWKWDHHGRDAIRVYREQVDHITHVKVSNFHVQGDKAISDVHEEVRVGDKHVIRRIEIIVIVIDGKVHSIELEIK”, the protease stability score came out at 0.357.
On to “SELDHAAEHLYRLFYHLERTGDEETLMDNMDPNARNEQGEFEYHGREFIEWVSEHLGINVIRVKRVDLRVINGRMILDIDYRVHIGDKTIQRHIHVVINKVNGKWIVEKLRIEWR”, for which the protease stability score came out at 0.79.
Regarding “SELDHLTKHAMELWLRLLETGDEHSEHRLADPNVRLDVNGKELHGMEEILEHLSRLGIKVFRVKDTELVGNKLHLIGELEFDGKRVETHVIAWKINGRWHLHRREIR”, the protease stability score stood at 1.57.
As for “SELDKVAEEHMEHFFHLYRTGDEDMTHELLDPHVRVSINGVETVGRELATKEVIDWVRKVKNVKTHIHHIEKINGKVIVDTRIHINGVDFRLVIWADKVNGRWHIREMEIR”, the figure is 1.36; as for “SELDRDVEHVLKELAKAMRTGDEEMLHDMIDPNARMIVDGKNLHGREQIWKFFTELRVDSRRYEVKHSEIQGNKLEIDGRTRIIIIVNGREIDRETHTEIILLKINGKWLMHSVRIE”, 1.07.
“SELDTLVEEVAEIIVKYLITGDEDSLLKMLDPNMRTDINGREIHGREVTHEFLRQEKERLGVSRIQMRLESFRVQGDKIIIHGTLHYNGKDFEVIVIIIVWNGRIREIRIEIR” returned a protease stability score of 1.4.
“SELEDATEFAIKVLLEVLRTGDWLEFEKMVDPNVRSSINGVELHGRRRLSHEILREWMELGIKHLDVHLKHKELQGDKLILIVELRLDVNGREIRRETELILLKVDGRWLLTEVRVK” returned a protease stability score of 1.58.
As for “SELEDMLRHMFDLFWRAFRTGDWELLMRLADPHVRLEVRFNGRHIEHVGRESFVESVETLRHEWRIDHLRINDEKYQGDYVNLNTRMDVFFDGVKVRTDTRVHSVVVNGRLREFSIEFG”, the protease stability score stood at 0.495.
“SELEEAVRRWLELFFKLFWTGNEEILTDLFDPNVRLEVGDKVFIGREEVSRHLREFRERVKNLRMHVHDVKLINGVVHMDIEIDINGVRTKAHTDWIVIDGRHHSQIIKIN” came in with a protease stability score of 0.525.
“SELEEDMRYLLKLILDAFRTGDEHTFARLFDPHVRIEIGDKEFVGREFVLHHAHQLRIKRSHFNVEHFEWQGNKIRMHGILHFHGRFDGQERESYVDIHIVIEKVDGRWLVKSLHIH” showed a protease stability score of 1.63.
Regarding “SELEEEAKELIEEWLHSFSTGDEKKLYELADPDDRLLFNGVEFVGREEMLKNFRDLYRKWGVTRVEADVKRIHVFNGVAHSDTVSHYNGVRVKTHLVIEKINGRWRVSSLHIH”, the protease stability score turned out to be 1.42.
On to “SELEEEALHLMELYLKSVMTGDEESIRRLADPNVRFEVDINGKKLELHGWKEETKFWREIWVRELRVRDKDAIGNKVHSVVEINVDVNGKEIRRESEEHYIIVDGRLHIISFRVN”, for which the protease stability score turned out to be 1.27.
In the case of “SELEEEARKMNERFWRDMITGDFDSLVRLADPHVKVLYGDKFSIGREVFEEHLRHLGIKVSHLRNLDVQGDKVIVHGESKFNGKTFELEIIMRKFDGRWFIETVNLQ”, the protease stability score came out at 0.973.
“SELEEEMEKWARDFLRLWFTGDEETTERLFDPHARMDVNGVQNHGWEMMSRQLTHYINHIRIRDLEVETISQQGDKIYVHGQENVEIGDKHLRYHTHIELVIVNGRVQEVRIEVK” returned a protease stability score of 0.993.
“SELEEENRQALKESLREWETGDEKRLHENADPNARLQYGDKHYHGRENVSHMLTHIIEKFGIDHMRVRDFRVQGEKVETHVELRVGDKHLHIRIITMKVNGKWLFHSVHMHIE” showed a protease stability score of 0.997.
Regarding “SELEEESHKFFREFYRVIETGDEDRLEELADPHVRNDFNGVLIHGREEMRKMREKVHKQLGVTRVEVTVRDMKIQGDKAISHGVFHIGEKDFIVTLISEKINGRWILHSIEVR”, the protease stability score is 1.2.
Next, “SELEEEVRRAVTFWLEALMTGDEESVSHMLDPNVRVDIDGRDLHGREKMIETMKHIRIKHIELTSIKVINGRAHIHTKVDGEFNGRRDTLDVEIIITKINGKWVVKEVNVK”: 1.7.
“SELEEFARKLMHIYSFAFLTGDWRLHEHMLDPHVRQEQGDKELHGMEDLERLMKRIDHVKHVEMLIEHLEVQGDKVRAHGKWRLIGTVNGQDVDVTIRAHFNIEKFDGVWVVREVRLL”: the protease stability score stood at 2.58.
“SELEEHATKMLQMVLEWWFTGDEEIFKHLADPHVRVESLINGVEIRRVGMEKLHEWLKHVLIHLRFEDMKVKHLEIINGVARQDTRTHMDVNGKHVDLETHVVVVNVNGRLKSIKIEIR” registered a protease stability score of 0.971.
The sequence “SELEEIAEEVARRFSHFIETGDEEKLWKYFDPHVKIDIDIDGRTKELHGMERFVFFIRYLGLDRVELRDHRIEIQGEKAILDGTTHINGRTRKTNFHIFVFNGRIKFMQVHII” returned a protease stability score of 1.48.
As for “SELEEILKIARRFFEIVMRTGDPRDIERLLDPNAKLIIDGQEIHGREKMSNTFEEMVRRYDVVKSIEDKDWKIVNGRVDLDITLNGRVDGKDISTRVIIHVEKINGRWFMREVNIE”, the figure is 2.14; as for “SELEEITEKAIRMDLQHEETGDWKKYSDMIDPHARFIVNGVEFVGRHFLLKWFLDVAKRVDHSRMHVDHEEHVDGRIHVDFRFELIFDGREYRIRSHIVADKIDGQWYFRQIRFQ”, 1.29.
As to “SELEEITRRVWERLVRDLRTGDEKSLQEMLDPNVRSDFNGVELIGRELATKLIAELRIHDVKVEDVKFQGDKMTLDTKIDGEVNGKRHEFKHTLIFVKVDGQWMIETEEFH”, the protease stability score was 1.26.
Next, “SELEEKAREMLTLLHKFWRTGNEEFFTKLFDPDMKLTVGDKEYIGMEDVTEYFVKWTREARLTDQETTDIEYYDGRLRIHVEMDVKQGDKRRKLESIIILLKVDGRWFATKVEIR”: 0.928; “SELEEKTEKWARLFWLLYKTGDWETLEKLLDPHVRSEINGKEEHGRENMIRMLVDLLRLLGIDHIELHHIEFVNGKVIIHLSLHAENHSSELIIEVNIINGKIESIRIEVR”: 1.09.
